Laboratory results reported in the RNAGym collection of RNA variant scans (doi:10.1073/pnas.2313332121).

B1: TPR t1 (parent)
chain: GACCAAUCUGCCCUCAGAGCUCGAGAACAUCUUCGGAUGCAGAGGAGGCAGGCUUCGGUGGCGCGAUAGCGCCAACGUCCUCAACCUCCAAUGCAUCCCACCACAUGAUGAUGCCUGAAGAGCCUUGGUUUUUUG

Variants of: B1
Experiment: polymerase ribozyme fitness, log enrichment relative to wild type (log ratio); higher = more active; in vitro selection for triplet polymerase activity
Procedure, shortened: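 Input and output libraries were sequenced on Illumina after a single in vitro selection round, run in triplicate on PCR-built, transcribed mutant libraries of each subunit of a heterodimeric triplet polymerase ribozyme. Selection annealed libraries to a biotinylated primer, the partner subunit and triplets, incubated them frozen at −7 °C, then gel-excised extended constructs for streptavidin-bead capture and RT-PCR. Genotypes with ≥10 input reads and ≥1 read per output were kept. Fitness is the logarithm, taken in base 2, of genotype enrichment divided by wild-type enrichment, using inverse-variance-weighted replicate averages.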

Variant | polymerase ribozyme fitness (log ratio)
G10U A26U G42A U106A U125G | -4.36
G10A C15G C82A G93A | -4.03
G71A G107A C114U | -4.4
C11U A18C A27U A46U | -7.63
G60A C98A C123U | -5.08
U106A U116C | -0.567
U78C C104U | 0.332
C11G A108C | -4.07
C40U G48U G52A A121U | -0.327
C86G A90C U96C U112A C124A | -1.78
C8A C28G C64U C102A U109A | -4.53
C49U C104U | -0.182
C53A G71A C115U | -3.94
G120C G127U | 2.11
U7A G19U U87G | -3.3
A5U C11G A91G | -0.601
A16U C88U | -1.68
A50G C104A | -1.49
G42U C72A | -0.339
C15A G42A C53A C101U | -4.53
C34A G60C | -3.4

Variant | polymerase ribozyme fitness (log ratio)
A24G C31U G60C U96G U106A G120C | -4
A29U C70G U125G | -3.65
A100U U132C | -0.866
C40U A90G C123U | 1.26
C8G A74U U78G | 0.422
U32A G58A C94A | -5.83
A83U A91U U92G A111C U130C | -3.89
C4A C12A C70U C86G G120U G128C | -2.75
G48C C104U G135U | -1.53
C49U G51A G63C | -3
A43U G48C G57A C89U U106C | -2.94
G23C C28U C102G U112A C115A G120A | -8.12
C34U G120A | -3.93
A27U G36C G135U | -5.51
C49U C56A U109A G117U | -5.98
C3G U7A C40A G44A A111U | -5.51
G45A C56U | -0.103
A66U C124U | 0.294
A6C G61A C115U | -1.31
A16G C97G U116C | -2.75
G39U C101A | -2.22

Variant | polymerase ribozyme fitness (log ratio)
G42U U55A C56G G77C C115A | -1.05
A26G A41G G60C G93A | -2.97
C22G G57A C124U | -2.07
A16U G52U U78C A111C U126G G127U | -3.36
A41U C70U | -2.3
G36C C94U C97U | -1.57
C31G C124A U129G | -6.34
G10U A43C C76U A90C C115A | -2.83
G63U U132A | -0.852
G69A C114A A121G U130G | -4.38
A74U C123U | 0.766
G45A A68U C104U U109C | -6.38
C49G C101U U131C | -0.189
G23A C70A | -4.2
A27U G63A | -4.36
A16U C56G G63U C101U | -4.93
C13G G93A C101G U112C U130A | -4.16
U30C G61A | -2.02
U38G G71U U92G G93A U112A | -6.86
G17C G25U G47C G120A G127A | -7.42
G10U G61C | -1.82

Variant | polymerase ribozyme fitness (log ratio)
G71C C79U | 0.303
A43U C73U C123G G127C | -1.76
C28G A37C | -3.7
A5U A119G | 0.901
C8A G39C C53G G61C | -0.548
A16C U87C | -2.31
G19A C101G | -5.15
A84C C85G U133C | -0.825
A29G G45A A121C G128C | -2.4
A2G U78C | -0.357
A90C A118U | -0.0445
C62U G63U U109G | -7.47
G48A C72G C124U | 0.723
C13A U14C A16C C115A A119G | -2
C12A G39U G117A | -2.74
C11A G128C | -3.97
G35A U130G | -5.13
C12A A27U | -3.57
G71C G117A | -1.82
G48U G51C A95C A111G U134A | -4.35
C13A A24G G58C C115A | -3.96
